Assay: label from the status in PepcDB records
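Further: failed if final PepcDB status was selected cloned or expressed and not failed if soluble or beyond.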

Row | Sequence | protein production
1 | MSLNTSIYGLIGEKLGHSHSSYIHKLIFEKVGIKGIYNLFEVPKEKLKESVDTFKIIKCGGLNVTIPYKVEVMKELYEISEKARKIGAVNTLKFSREGISGFNTDYIGFGKMLSKFRVEIKNNICVVLGSGGAARAVLQYLKDNFAKDIYVVTRNPEKTSEIYGEFKVISYDELSNLKGDVIINCTPKGMYPKEGESPVDKEVVAKFSSAVDLIYNPVETLFLKYARESGVKAVNGLYMLVSQAAASEEIWNDISIDEIIVDEIFEVLEEKIKSEGHHHHHH | not failed
2 | MVNILSLFTLAALWGGSFLFVRIAANPLGPAVLIEVRVAFAALTLLVVSFFLKKSLRFMSNIKHFLILGLFNSALPFLLFAYSAQVLNVSTLAVLNSTAPIWGAVIGAIWTRTRLSKDVIFGLILGMIGVSVLVGWEAINIGDEAIIPIITALIGAFSYGVATNYAKNAPSVEPFNNAHGSMWASVLLVLPLVPFMPVREEVTSDIIAAVFALGAVCTGLAYLLYFRLIKELGASSALTVTFIIPVFGILWGYLFLGETVGVNAIIGTILVVIGTMFVTGFASKFMSKKCV | failed
3 | MATPKLEIGVIGLGKFGLQVSRTLVELGHSVVGIDSTEGRIRQAQDILSQVYQGNAADPAVLQQLRFQDLDCVIVSVGNSMETSLLVTLNLQEIGVRKIWVKAVSTEHKKVLTRLGVDHVILPEHDVATHLAHRLVNPGMLDLLPLGGGGQILLQELTVDKWAGRTLLDLRLANEHGVMVVAVKPAAFREYRFVPAAHEVLQQGDKLVVIGRHEDVLRLEP | failed
4 | MSLIYQIAKEFDFCYGHRVWSQELNPDFSLDPCLSCRHLHGHQGKVIVHLESRELQRGMVTDFAHLNWFKRFIDEVLDHRFIIDIDDPLFPTLLPHFADKSALVWMEEGYARVDFERIKGESSPILELYESFVVVRFVPTSESIASWLLELLRSRIQPLGVKVSSVEFLETPKSRARVYNEGHHHHHH | not failed
5 | MTITSNISVQNDNLVVQGKTILTKIPDNIILTPVTGNGFVSGSFIGATFEQSKSLHVFPIGVLEGLRFMCCFRFKLWWMTQRMGSCGKDIPLETQFMLLESKDEVEGNGDDAPTVYTVFLPLLEGQFRAVLQGNEKNEIEICFESGDKAVETSQGTHLVYVHAGTNPFEVIRQSVKAVERHMQTFHHREKKKLPSFLDWFGWCTWDAFYTDVTAEGVDEGLKSLSEGGTPPKFLIIDDGWQQIENKEKDENCVVQEGAQFATRLVGIKENAKFQKSDQKDTQVSGLKSVVDNAKQRHNVKQVYAWHALAGYWGGVKPAASGMEHYDSALAYPVQSPGVLGNQPDIVMDSLAVHGLGLVNPKKVFNFYNELHSYLASCGIDGVKVDVQNIIETLGAGLGGRVSLTRSYQQALEASIARNFTDNGCISCMCHNTDGLYSAKQTAIVRASDDFYPRDPASHTIHIASVAYNSLFLGEFMQPDWDMFHSLHPTAEYHAAARAVGGCAIYVSDKPGNHNFDLLRKLVLPDGSVLRAKLPGRPTRDCLFADPARDGIRCWLVQGNEEEPDP | failed
6 | MSKIEIFEAAGCCATSSVVVSDEAVKWNASAEWAKKHGVNIQRYSLAKNPQQFLNTPVIRAFLNTSGMESLPATLLDGQLVMAGKLPSREDIARWAG | not failed
7 | MNSELTFKQGLKDTMPTVFGYIGIGIAFGMIGHSEGFSVWVILLLSLIVYAGSAQFIMVSMLATHSPIMSIVLSVFLVNSRIILMSMTTASYFKNESLLKNILLGTLLTDESFALGMNKQNYTEGKLNFSWFNASNLLAYLVWALASAIGALLGNLLANPEKLGLGFAVIAMFIGLLYLQLISDKTLGLMLQLVMVGITLVLFYFGLIFLPSNLLVLFVTLIACALGVGVKRVFF | failed
8 | MKVDVDEKTYIITMANDITKLYEENKRNLHYSITDPLTGAYNRKYLNDRFDIFIGDYIVLIDLDNFKMINDYEGHNVGDKILCDFVSLLNKELINSTSIIRLGGDEFIVIFSSDVDKNYVYSQLEALRENFLKVFSKYKYLSFSYGVDTVKRNLKLTIVELDKKMYKNKEKNKKKFDKNLEHHHHHH | not failed
9 | MFQSKSRTSLTNKKTLLFGLISVFLCGMGFSIIMPVVPFLVTPYVTNASDQALMVTLLTSVYAFCVFFAAPGLGALSDRFGRRPVLLICFIGSAIGYFIFGLGGALWVLFLGRIIEGITGGSISTLFAFFADITPQEERTKYFGWVSAAAGAGAALGPAFGGLLAHFGYAMPFFFGATITFINFLFGYFYMPESLDDANRLKRIPLMRLNPFSQLLNILTIKNLGRLLIAAFFIWVPNGSLQAVMSQFAIDSFSWKPALIGMMFSIMGIQDILSQAFVMPKLLIRLTDKQIAVLGMIAEIIGYSLIATSSIFTLAPLLVIGMFVFGFGDSIFGPSFNGMVSKAASASEQGRIQGGSQAIQSLARIIGPIIGGQIYITLGHAAPAIMGVLLITVAIFILYKKTSLAK | failed
10 | MTIEKKKNKIIFTRTFSAPINKVFDAYTKRELFEQWFHPQDASVTVYDFNATKGGNAFYAIQAPQMTSYTIAEYLQVDAPYYIEYLDYFATSKGEKDTSMPGMHITLNFEEVKGKTTVTSTSTFPTESAAQQAIDMGVETGMNSTLNQLEKLLNQKLEHHHHHH | not failed
11 | MIFVIFAKKSVRFPGKHSAMINGRRMIDIVASKLKNHGEVILYSKDPELNCDMCRVVRDTTDGIITDSVLSAMDRFGTFFAVAGDMPFITDRIIEKILSSYDGKPTFPVHADGLIEPLFGIYTDAIYDAMRDYIESGGESLIGFLSMADIDRVPIAEEEEKFFVSVNYPEDIKKYADLLTLEHHHHHH | failed
12 | MILSIDSNDANTAPLHKKTISSLSGAVESMMKKLEDVGVLVARILMPILFITAGWGKITGYAGTQQYMEAMGVPGFMLPLVILLEFGGGLAILFGFLTRTTALFTAGFTLLTAFLFHSNFAEGVNSLMFMKNLTISGGFLLLAITGPGAYSIDRLLNKKW | failed
13 | MVHASVDIEVQFAIAVVKTLILVLGGIVTYLAYSAYQRTGDETLFQLSVGLALVGVGVLLGGFTFELLDVSLGVGVLIESLFVLAGLSVIAYSLKK | failed
14 | MQVKTEEKSVNNKKLIPFWVIERALEGDIQAINKILKHYEGYIAKLSVRKMYDEYGCVHYCVDETLRRRLETKLIKTIIGFKIVRLEHHHHHH | not failed
15 | MIYEGAVFRPPSEASSLILQVSLGCRHNQCTFCSMYKGKSFRIRSIEEIMDMIDAGSKAYPHMERIFLADGDALAVETDVLSNVLETLYQRFPRLKRVGIYGGPKDILEKSPAELARLKEQGLSIVYLGVESGSGLILNLIRKGVTPEEMINAGQKVVASGLKLSCTIILGLGGRERSPEHAVETGKVISAINPHYLGALTLMLAPDAPLTQKIKSGEFTPLNKWESLIELELMVQGLNLKDCLFRSNHASNYLPLKAHLPHDKATLLSTLKEVIEENREEVLRPEYWRGL | failed
16 | MHPASFDDHIFRLLIEAVDDYAIYIIDAQGHILTWNNGAERNTGYNADEIIGQSFELFYTPEDLATQLPAKGLLHANQLGHYENQGWRVRKNGKRFWGHITLSALHDSEHNLQGFVQVTRDLTD | failed
17 | MMARVEKLRELMKENNLQGFLVTSPYNLRYLTNFTGTTGLAMITLDKAFFVTDFRYTEQAAEQATGFTIVKNTGHIFDEVADLAERLQLDNLAFEETQVSFADYSLLEEILPCELVPVMGLIEELREVK | not failed
18 | MGRTSKDKRDVYYRLAKENGWRARSAFKLLQLDKEFQLFQGVTRAVDLCAAPGSWSQVLSQKIGGQGSGHVVAVDLQAMAPLPGVVQIQGDITQLSTAKEIIQHFKGCPADLVVCDGAPDVTGLHDVDEYMQAQLLLAALNIATHVLKPGGCFVAKIFRGRDVTLLYSQLQVFFSSVLCAKPRSSRNSSIEAFAVCQGYDPPEGFIPDLSKPLLDHSYDPDFNQLDGPTRIIVPFVTCGDLSSYDSDRSYPLDLEGGSEYKYTPPTQPPISPPYQEACTLKRKGQLAKEIRPQDCPISRVDTFPQPLAAPQCHTLLAPEMEDNEMSCSP | failed
19 | MTESIVCHKCQEAITKRMITALGKTWHPEHFLCHHCDEQILDATFNVQSGEPVCNKCFVERYTYTCAGCKKPILEKTICAMGESWHEDCFCCGGACKKPLANQTFYERDGKPYCKKDYEDLFAARCAKCEKPITDSAVLAMNVKWHRDCFRCNKCENPITSQTFTIDGDKPVCPACNC | failed
20 | MSLKFQKLSGLVLCFLIALPAWFLGQSFPLVGAPVFAIFLGMLLAIFYKNREHTEAGIAFTSKYILQFAVVLLGFGLNLSQVLTVGKTSLPIIVATISSSLLLAFLLQKWFKLDVNTATLVGVGSSICGGSAIAATAPVIQADGDEIAQSISVIFLFNILAALIFPTLGDMIGLSNHGFALFAGTAVNDTSSVTATAAAWDGLHHSNTLDGATIVKLTRTLAIIPITLGLSFYQVYKTKKVGKNQQHTVKLKKVFPMFILYFILASIITTILTALGVNPIFFTPLKTLSKFCIVMAMGAIGLNTNIVKLVKTGGQAIVLGASCWIVITLVSLGMQHLLGIW | failed
21 | MLVVYIALMICTMTPVLALQAGADMSVLVWLVFGLVIVKAVLLVDHFMEMKHAPWGWRMAAQGWAVVVVSVLAGIHLAG | failed
22 | MNIVKLMVIIIYLIIGSALGIIIIPEIANDLGLQNSSFLKNHYVDGIIGSIFMFLIFGVFIRRVTNAIKGLEHFIMRRSAVEILFATIGLIIGLLISVMVSFILESIGNSIFNHFIPVIITILLCYFGFQFGLKKRDEMLMFLPENIARSMSQHTKSATPKIIDTSAIIDGRILEVIRCGFIDGNILIPQGVINELQIVADSNDSVKREKGKRGLDILNELYDLDYPTKVIHPTKTHSDIDTMLLKLAKQYHASIITTDFNLNKVCHVHGIKALNVNDLSEAIKPNVHQGDQLHILLTKMGKEPGQAVGYLDDGTMVVVDNAKNLIGSHVNLEVVSLLQTSSGRIVFAKKIEDTVSLLEHHHHHH | failed
23 | MLIERIYDEDLAQASYFIGCQAHNTAVVVDPRRDIAVYLDMAKKNGMEIVGVTETHIHADYLSGTRELAAATNATMYVSGEGGADWQYEFDAERICDGSEIRLGNLVLTAVHTPGHTPEHLSFLLKDGAFADEPGFMLTGDFVFAGDLGRPDLLDEAAGGVDTRFEGARQMFKSLKEKFLTLPDHIQIFPGHGSGSACGKALGSVPSTTLGYERQFAWWGKYLEADDEQGFIDELLEGQPDAPAYFGRMKRQNRQGPAIMGARELLPQLEASDLHDVIVVDTRSADEVHQGTVAGAVNIPAGNSMAKFGSWTVDPEKDSRALVLLAASQIGAMEMWDHMVRVGIDNVAGFITNFDGVDLVAPQTVSPDQLDELEYDLLLDVRNRSEVEEGYIPGALHINGASVLWNLEKLPRDGKIVSYCKSGTRSSIAASTLRNAGFDVVELQGSYDNWVRHNAQLEHHHHHH | not failed
24 | MRIDKFLQSVGLVKRRVLATDMCNVGAVWLNGSCAKASKEVKAGDTISLHYLKGIEEYTILQIPALKNVPRKDTHLYIAPKTKE | failed

Reference: a protein production outcome set (Wang et al. 2014)
